Experimental data from article PMC4755954, “Impact of clinically tested NEP/ACE inhibitors on tumor uptake of [^111In-DOTA]MG11—first estimates for clinical translation” (EJNMMI Research, 2016).
Square brackets hold non-standard residues; d marks the D form. Peptide text beside a SMILES is read from it. * marks the point of attachment. DOTA = O=C(O)CN1CCN(CC(=O)O)CCN(CC(=O)*)CCN(CC(=O)O)CC1

Tests used:
[1] = iv infusion of 150 mg in 250 mL of isotonic glucose in 42 patients; cited from earlier work
From the text: Aiming at clinical translation, our interest has been attracted by two clinically certified NEP inhibitors, TO and its prodrug Race. TO is a potent, reversible NEP inhibitor with a relative rapid onset of action, but its water solubility is not ideal for iv injection as a bolus together with the radiopeptide. […] The impact of TO on the bioavailability and tumor uptake of our paradigm compound [^111In-DOTA] ...

in vivo [2] = assay: in vivo; design: species or system SCID mice; settings: male, SCID, mouse, iv, 10 pmol total peptide, total radioactivity, %ID/g tissue ± SD
Protocol: In-house male SCID mice (NCSR “Demokritos” Animal House) of 6 weeks of age at the time of arrival (18 ± 2 g body weight) were inoculated subcutaneously (sc) in their flanks with a suspension of freshly harvested AR42J cells (1 × 10^7 cells in ~150 μL saline). Animals were kept in aseptic conditions for 14 days when well-palpable tumors developed at the inoculation sites (0.31 ± 0.17 g). At the day of biodistribution, animals received a bolus of [^111In-DOTA]MG11 (100 μL, 37–74 kBq, 10 pmol total peptide, in saline/EtOH 9/1 v/v) through the tail vein, coinjected with (a) vehicle (100 μL; control group, n = 10), (b) PA (100 μL of vehicle containing 300 μg PA; PA group, n = 10), (c) TO (100 μL of vehicle containing 150 μg TO; TO group, n = 4), (d) Lis (100 μL of vehicle containing 100 μg Lis; Lis group, n = 4), (e) PA plus Lis (100 μL vehicle containing 300 μg PA and 100 μg Lis; PA+Lis group, n = 5), or (f) 30–40 min after ip injection of Race (3 mg Race dissolved in 0.025 mL DMSO and freshly mixed with 0.375 mL saline; Race group, n = 4). In a separate animal group, the mice were coinjected with 100 μL vehicle containing both 300 μg PA and 100 μg DG2 [25] to assess non-specific tumor uptake during in situ NEP inhibition (in vivo CCK2R blockade; block group, n = 4).
(§1) Mice had access to drinking water ad libitum until they were euthanized at 4 h pi. Blood samples, organs of interest, and tumors were collected immediately after dissection, weighted, and measured for radioactivity in the gamma counter; only stomachs were emptied of their contents prior to measurements. Biodistribution data were calculated as percent of injected dose per gram tissue (% ID/g) with the aid of suitable standards of the injected dose, using the GraphPad Prism Software (San Diego, CA).

in vivo [3] = assay: in vivo; design: species or system SCID mice; settings: male, SCID, mouse, iv, 10 pmol total peptide, total radioactivity, %ID/g tissue ± SD; remark: listed apart in the source
Protocol: as §1
Inocula of freshly harvested A431-CCK2R(+/−) cells (1.6 × 10^7/1.4 × 10^7 cell suspensions in 150 μL saline) were sc-injected in the right and left flanks of the SCID mice (male SCID mice, 6 weeks of age and of 18 ± 2 g body weight on arrival day; NCSR “Demokritos” Animal House). The animals were kept in aseptic conditions for 8 days till well-palpable tumors (0.26 ± 0.08 g) developed at the inoculation sites. At the day of the experiment, the mice received a bolus of [^111In-DOTA]MG11 (100 μL, 37–74 kBq, 10 pmol total peptide, in saline/EtOH 9/1 v/v) through the tail vein, coinjected with (a) vehicle (100 μL; control group, n = 5), (b) three different doses of PA (3 μg, n = 5; 30 μg, n = 4; or 300 μg PA, n = 10, dissolved in 100 μL vehicle), and (c) three different doses of TO (1.5, 15, or 150 μg TO dissolved in 100 μL vehicle, all groups of n = 4). Mice had free access to drinking water until they were sacrificed at 4 h pi, and biodistribution was conducted as described above.

O=C(O)CNC(=O)C(CS)Cc1ccccc1 (racemic) [TO, DL-3-mercapto-2-benzylpropanoylglycine]
hemodynamic tolerance in human [1]: excellent hemodynamic tolerance

CSCC[C@H](NC(=O)[C@H](Cc1c[nH]c2ccccc12)NC(=O)CNC(=O)[C@H](Cc1ccc(O)cc1)NC(=O)[C@H](C)NC(=O)[C@@H](CCC(=O)O)NC(=O)CN1CCN(CC(=O)O)CCN(CC(=O)O)CCN(CC(=O)O)CC1)C(=O)N[C@@H](CC(=O)O)C(=O)N[C@@H](Cc1ccccc1)C(N)=O [[^111In-DOTA]MG11, metal not drawn] ({DOTA}-[dE]AYGWMDF-NH2)
tissue uptake at 4 h (in vivo [2]; Blood): 0.04 ± 0.01 %ID/g | tissue uptake at 4 h (in vivo [2]; Femur): 0.09 ± 0.05 %ID/g | tissue uptake at 4 h (in vivo [2]; Heart): 0.05 ± 0.02 %ID/g | tissue uptake at 4 h (in vivo [2]; Intestines): 0.89 ± 0.76 %ID/g | tissue uptake at 4 h (in vivo [2]; Kidneys): 1.86 ± 0.25 %ID/g | tissue uptake at 4 h (in vivo [2]; Liver): 0.13 ± 0.03 %ID/g | tissue uptake at 4 h (in vivo [2]; Lung): 0.07 ± 0.02 %ID/g | tissue uptake at 4 h (in vivo [2]; Muscle): 0.04 ± 0.01 %ID/g | tissue uptake at 4 h (in vivo [2]; Pancreas): 0.11 ± 0.03 %ID/g | tissue uptake at 4 h (in vivo [2]; Spleen): 0.17 ± 0.07 %ID/g | tissue uptake at 4 h (in vivo [2]; Stomach): 1.53 ± 0.65 %ID/g | tissue uptake at 4 h (in vivo [2]; Tumor (AR42J)): 1.82 ± 1.25 %ID/g | tissue uptake at 4 h (in vivo [3]; Blood): 0.01 ± 0.01 %ID/g | tissue uptake at 4 h (in vivo [3]; Femur): 0.02 ± 0.01 %ID/g | tissue uptake at 4 h (in vivo [3]; Heart): 0.02 ± 0.01 %ID/g | tissue uptake at 4 h (in vivo [3]; Intestines): 0.83 ± 0.53 %ID/g | tissue uptake at 4 h (in vivo [3]; Kidneys): 1.3 ± 0.29 %ID/g | tissue uptake at 4 h (in vivo [3]; Liver): 0.11 ± 0.02 %ID/g | tissue uptake at 4 h (in vivo [3]; Lung): 0.03 ± 0.01 %ID/g | tissue uptake at 4 h (in vivo [3]; Muscle): 0.02 ± 0.01 %ID/g | tissue uptake at 4 h (in vivo [3]; Pancreas): 0.05 ± 0.02 %ID/g | tissue uptake at 4 h (in vivo [3]; Spleen): 0.06 ± 0.01 %ID/g | tissue uptake at 4 h (in vivo [3]; Stomach): 1.32 ± 0.26 %ID/g | tissue uptake at 4 h (in vivo [3]; Tumor (+) (A431-CCK2R(+))): 2.5 ± 0.92 %ID/g | tissue uptake at 4 h (in vivo [3]; Tumor (−) (A431-CCK2R(−))): 0.12 ± 0.02 %ID/g
